Measured values: patent US20220372105A1 (POSEIDA THERAPEUTICS, published 2022)

Target: T1, CD58 (UniProt P19256 29-215, limits assumed)
T1 construct: also called naturally occurring CD58
T1 sequence (looked up): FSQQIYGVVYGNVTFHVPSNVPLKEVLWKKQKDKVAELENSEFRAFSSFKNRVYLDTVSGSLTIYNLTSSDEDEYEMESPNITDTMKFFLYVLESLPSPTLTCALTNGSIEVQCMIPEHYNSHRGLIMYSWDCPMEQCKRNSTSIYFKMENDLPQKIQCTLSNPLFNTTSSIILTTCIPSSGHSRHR
Assay: not described (screen of a CSR mutant panel)

- binding result: no binding
B1: CD2 extracellular domain with D111H mutation ("CD2 ECD (D111H)") (receptor)
chain: KEITNALETWGALGQDINLDIPSFQMSDDIDDIKWEKTSDKKKIAQFRKEKETFKEKDTYKLFKNGTLKIKHLKTDDQDIYKVSIYHTKGKNVLEKIFDLKIQERVSKPKISWTCINTTLTCEVMNGTDPELNLYQDGKHLKLSQRVITHKWTTSLSAKFKCTAGNKVSKESSVEPVSCPEKGLD
notes: also called CSR CD2z-D111H mutant; mutant CSR
